Test results reported in patent US20120039802A1 (published 2012).
fluorescein = fluorescein label on the side chain of the C-terminal Lys

B1: 333-C05 synthetic fluorescein-labeled peptide (SEQ ID NO: 068) (peptide)
peptide: Ac-AGDIVCTGHPYFECWSWGTGGGK(fluorescein)-NH2
modifications: cysteine pairing not given here
B2: 325-H05 synthetic fluorescein-labeled peptide (SEQ ID NO: 048) (peptide)
peptide: Ac-AGSIQCKGPPWFSCAMYGTGGGK(fluorescein)-NH2
modifications: cysteine pairing not given here
B3: 103-C04 peptide-displaying phage (SEQ ID NO: 490) (peptide)
peptide: AQKTWFLEADLFQMFQEVTWQF
B4: 523-A04 peptide-displaying phage (SEQ ID NO: 493) (peptide)
peptide: AQRDYLFYWNDGSYQPWQVFVG
B5: 352-E04 peptide-displaying phage (SEQ ID NO: 019) (peptide)
peptide: AGTVYCSWESSECWWVGT
B6: 457-A09 peptide-displaying phage (SEQ ID NO: 024) (peptide)
peptide: AGYPECKDNYHWCEWKGT
B7: 329-D02 synthetic fluorescein-labeled peptide (SEQ ID NO: 061) (peptide)
peptide: Ac-AGHAWCSGPPRFECWPPGTGGGK(fluorescein)-NH2
modifications: cysteine pairing not given here
B8: 524-D07 peptide-displaying phage (SEQ ID NO: 494) (peptide)
peptide: AQQWMFQIHQSMAWPYEWIDSY
B9: 499-C09 peptide-displaying phage (SEQ ID NO: 023) (peptide)
peptide: AGVIVCNLSMMYCLYPGT
B10: 482-A12 peptide-displaying phage (SEQ ID NO: 021) (peptide)
peptide: AGDHYCWEEWWFCWDSGT
B11: 96-D06 peptide-displaying phage (SEQ ID NO: 489) (peptide)
peptide: AQWNWDMGFMWTTDSAQVQPSM
B12: 334-C08 synthetic fluorescein-labeled peptide (SEQ ID NO: 067) (peptide)
peptide: Ac-AGGWECTGPPWFQCGYYGTGGGK(fluorescein)-NH2
modifications: cysteine pairing not given here
B13: 330-B07 synthetic fluorescein-labeled peptide (SEQ ID NO: 053) (peptide)
peptide: Ac-AGSFACKGPPTFACVEFGTGGGK(fluorescein)-NH2
modifications: cysteine pairing not given here
B14: 330-G09 synthetic fluorescein-labeled peptide (SEQ ID NO: 071) (peptide)
peptide: Ac-AGHWICVGPPTFSCQWHGTGGGK(fluorescein)-NH2
modifications: cysteine pairing not given here
B15: 522-H03 peptide-displaying phage (SEQ ID NO: 495) (peptide)
peptide: AQGIAWQLEWSYMPQSPPSFDR
B16: 548-F06 synthetic fluorescein-labeled peptide (SEQ ID NO: 056) (peptide)
peptide: Ac-AGWISCAGPPTFACWPGGTGGGK(fluorescein)-NH2
modifications: cysteine pairing not given here
B17: 527-A10 peptide-displaying phage (SEQ ID NO: 496) (peptide)
peptide: AQGGRYPFYDTDWFKWEMYVL
B18: 323-A11 synthetic fluorescein-labeled peptide (SEQ ID NO: 059) (peptide)
peptide: Ac-AGYTSCVGPPSFECTPYGTGGGK(fluorescein)-NH2
modifications: cysteine pairing not given here
B19: 527-E08 peptide-displaying phage (SEQ ID NO: 491) (peptide)
peptide: AQWGAVDNDWYDWEMEQIWMFE
B20: 423-C11 peptide-displaying phage (SEQ ID NO: 022) (peptide)
peptide: AGVLQCIGFEWFCDIWGT
B21: 524-H02 peptide-displaying phage (SEQ ID NO: 492) (peptide)
peptide: AQVEDMATVHFKFNPATHEVIW
B22: 376-E05 peptide-displaying phage (SEQ ID NO: 020) (peptide)
peptide: AGVWICRVWDDECFFQGT
B23: 166-H04 peptide-displaying phage (SEQ ID NO: 488) (peptide)
peptide: AQMWHRVHDPGYTFEVTWLWDN
B24: 336-G04 synthetic fluorescein-labeled peptide (SEQ ID NO: 051) (peptide)
peptide: Ac-AGWFQCKGPPSFECERHGTGGGK(fluorescein)-NH2
modifications: cysteine pairing not given here
B25: 334-G06 synthetic fluorescein-labeled peptide (SEQ ID NO: 052) (peptide)
peptide: Ac-AGWTHCIGPPTFECIPMGTGGGK(fluorescein)-NH2
modifications: cysteine pairing not given here

Legend:
[1] = target: T1, cMet-Fc fusion protein (extracellular domain of the cMet receptor expressed as an Fc-fusion protein) (human, UniProt P08581 25-932); assay: fluorescence polarization, 20 nM fluorescein peptide, cMet-Fc varied
T1 construct: extracellular domain; also called soluble cMet-Fc-fusion protein; soluble cMet receptor; not shown: Fc part
T1 sequence (P08581 25-932): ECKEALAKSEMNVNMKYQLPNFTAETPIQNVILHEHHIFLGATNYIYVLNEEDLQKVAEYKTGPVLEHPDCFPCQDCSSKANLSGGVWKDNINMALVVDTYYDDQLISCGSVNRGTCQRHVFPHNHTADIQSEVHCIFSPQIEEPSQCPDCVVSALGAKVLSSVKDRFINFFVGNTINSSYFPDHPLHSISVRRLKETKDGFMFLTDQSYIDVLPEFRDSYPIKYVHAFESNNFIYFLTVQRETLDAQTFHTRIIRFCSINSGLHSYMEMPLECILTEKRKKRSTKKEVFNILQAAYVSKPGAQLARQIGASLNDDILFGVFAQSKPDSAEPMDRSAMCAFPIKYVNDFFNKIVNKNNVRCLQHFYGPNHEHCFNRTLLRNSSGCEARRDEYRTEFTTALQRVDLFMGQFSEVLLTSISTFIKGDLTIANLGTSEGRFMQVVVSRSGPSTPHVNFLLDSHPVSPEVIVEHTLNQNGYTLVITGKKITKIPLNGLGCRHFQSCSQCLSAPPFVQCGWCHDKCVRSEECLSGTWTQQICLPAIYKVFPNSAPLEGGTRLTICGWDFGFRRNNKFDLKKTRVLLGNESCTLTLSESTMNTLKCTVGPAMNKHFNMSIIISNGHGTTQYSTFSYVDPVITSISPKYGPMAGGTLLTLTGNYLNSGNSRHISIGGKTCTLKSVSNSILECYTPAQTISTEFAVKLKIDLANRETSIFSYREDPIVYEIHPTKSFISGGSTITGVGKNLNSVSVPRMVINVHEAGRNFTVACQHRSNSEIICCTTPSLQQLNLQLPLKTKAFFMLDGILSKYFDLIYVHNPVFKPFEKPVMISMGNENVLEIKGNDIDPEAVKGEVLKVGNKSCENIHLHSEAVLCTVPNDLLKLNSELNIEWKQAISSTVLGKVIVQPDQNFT
Description: Fluorescence anisotropy measurements were performed in 384-well microplates in a volume of 10 μL in binding buffer (PBS, 0.01% Tween-20, pH 7.5) using a Tecan Polarion fluorescence polarization plate reader ([…]). […] Binding mixtures were equilibrated for 10 minutes in the microplate at 30 C before measurement. The observed change in anisotropy was fit to the equation below via nonlinear regression to obtain the apparent KD. This equation (1) assumes that the synthetic peptide and cMet form a reversible complex in solution with 1:1 stoichiometry.

[2] = target: T1, cMet-Fc fusion protein (extracellular …); assay: phage ELISA, cMet-Fc vs TRAIL-Fc
In short: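 Specificity check: phage displaying peptides incubated 2 h at room temperature on wells coated with 0.5 μg/mL cMet-Fc versus TRAIL-Fc, after blocking with 3% BSA/PBST. HRP-anti-M13 antibody detected binding phage.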

[3] = target: T2, human cMet expressed on 3T3 cells (human, UniProt P08581 25-1390); assay: whole cell phage ELISA, 3T3 human cMet vs 3T3
T2 construct: whole, on cells; cells fixed with glutaraldehyde; also called cell surface-expressed human cMet; 3T3 cells that over-express human cMet
T2 sequence (P08581 25-1390): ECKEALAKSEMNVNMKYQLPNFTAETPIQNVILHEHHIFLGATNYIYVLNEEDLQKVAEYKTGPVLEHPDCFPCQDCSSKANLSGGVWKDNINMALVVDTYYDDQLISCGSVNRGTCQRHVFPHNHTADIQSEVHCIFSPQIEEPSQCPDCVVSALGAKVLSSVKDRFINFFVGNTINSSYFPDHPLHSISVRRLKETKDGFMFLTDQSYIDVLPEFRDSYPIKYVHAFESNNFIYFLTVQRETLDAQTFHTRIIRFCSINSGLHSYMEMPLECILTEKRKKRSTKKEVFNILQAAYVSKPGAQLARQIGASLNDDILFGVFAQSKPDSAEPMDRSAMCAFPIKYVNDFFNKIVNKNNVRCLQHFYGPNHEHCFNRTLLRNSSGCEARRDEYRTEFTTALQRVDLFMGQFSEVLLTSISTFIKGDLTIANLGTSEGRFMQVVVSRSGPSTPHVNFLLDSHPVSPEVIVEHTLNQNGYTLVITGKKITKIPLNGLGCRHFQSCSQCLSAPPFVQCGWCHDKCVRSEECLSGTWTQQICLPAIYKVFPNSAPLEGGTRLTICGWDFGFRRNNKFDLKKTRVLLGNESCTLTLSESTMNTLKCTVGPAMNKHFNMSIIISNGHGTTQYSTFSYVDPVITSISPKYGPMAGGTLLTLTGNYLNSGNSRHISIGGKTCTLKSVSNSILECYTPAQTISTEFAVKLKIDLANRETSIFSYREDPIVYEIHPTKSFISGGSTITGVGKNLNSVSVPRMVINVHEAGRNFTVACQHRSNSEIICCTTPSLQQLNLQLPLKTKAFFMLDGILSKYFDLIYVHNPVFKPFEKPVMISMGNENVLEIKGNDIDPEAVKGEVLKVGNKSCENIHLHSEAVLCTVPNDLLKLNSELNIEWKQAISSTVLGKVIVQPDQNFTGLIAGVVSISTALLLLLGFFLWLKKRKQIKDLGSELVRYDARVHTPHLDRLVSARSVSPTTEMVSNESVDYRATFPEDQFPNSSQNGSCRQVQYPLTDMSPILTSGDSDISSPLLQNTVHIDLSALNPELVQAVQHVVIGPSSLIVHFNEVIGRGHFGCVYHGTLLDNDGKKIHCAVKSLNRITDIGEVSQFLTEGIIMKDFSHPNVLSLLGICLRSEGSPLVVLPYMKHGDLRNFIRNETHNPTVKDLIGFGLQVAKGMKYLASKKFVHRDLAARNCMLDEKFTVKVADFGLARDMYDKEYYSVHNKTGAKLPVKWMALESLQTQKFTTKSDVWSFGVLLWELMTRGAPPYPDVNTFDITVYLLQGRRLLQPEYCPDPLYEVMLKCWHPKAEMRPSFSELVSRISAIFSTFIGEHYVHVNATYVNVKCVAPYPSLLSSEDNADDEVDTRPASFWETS
In short: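 Bound phage was detected with an HRP-conjugated anti-M13 antibody after PBST washes. The cells were cMet-over-expressing 3T3, read against plain 3T3.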

[4] = target: T1, cMet-Fc fusion protein (extracellular …); assay: phage ELISA on cMet-Fc, competitor HGF 100 ng/mL
In short: (§1)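 Plates coated with 0.5 μg/mL cMet-Fc, with TRAIL-Fc as background, then blocked with 3% BSA. Bound phage detected with HRP anti-M13 antibody.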

[5] = target: T1, cMet-Fc fusion protein (extracellular …); assay: phage ELISA on cMet-Fc, competitor HGF 500 ng/mL
In short: as §1

Binder | Kd [1] [nM] | Protein ELISA (fold over background) [2] [fold] | WC ELISA (fold over background) [3] [fold] | % of binding in the absence of HGF [4] [%] | % of binding in the absence of HGF [5] [%]
B1 | 2800 |  |  |  | 
B2 | 3500 |  |  |  | 
B3 |  | 3 | 1.4 | 73 | 86
B4 |  | 5.5 | 1.3 | 133 | 143
B5 |  | 3.9 | 1.37 | 88 | 74
B6 |  | 14.5 | 1.3 | 27 | 67
B7 | 5200 |  |  |  | 
B8 |  | 3.9 | 1.23 | 105 | 104
B9 |  | 3.2 | 1.33 | 91 | 70
B10 |  | 3.5 | 1.37 | 98 | 79
B11 |  | 3 | 1.37 | 154 | 151
B12 | 1650 |  |  |  | 
B13 | 2900 |  |  |  | 
B14 | 1850 |  |  |  | 
B15 |  | 4.5 | 1.17 | 107 | 94
B16 | 2700 |  |  |  | 
B17 |  | 3.8 | 1.3 | 84 | 78
B18 | 4300 |  |  |  | 
B19 |  | 3.2 | 1.23 | 98 | 95
B20 |  | 3.4 | 1.4 | 132 | 75
B21 |  | 3.2 | 1.53 | 26 | 25
B22 |  | 3.7 | 1.37 | 122 | 121
B23 |  | 3 | 1.27 | 77 | 85
B24 | 3200 |  |  |  | 
B25 | 2700 |  |  |  | 
